We go through seven molecules from publication PMC5166503 (The Journal of Cell Biology, 2016).

Like-named read-outs stand apart in the source and are kept apart here.

For data set [1], the target named is EGFP-CaMzt1 (C. albicans). In words: MST.
The target in data set [2] is Candida albicans γ-tubulin small complex (Caγ-TuSC) (C. albicans) (UniProt Q59PZ2). Put plainly: SEC. On the technique in general: In gel filtration, larger molecules generally elute earlier.
The target is the same in data set [3]. Put plainly: SEC. The source holds these as a separate data set.
Data set [4] deals with MOZART1-EGFP (purified) (human) (UniProt Q08AG7). In words: MST.
MOZART1-EGFP (purified) (human), sequence (Q08AG7 whole entry): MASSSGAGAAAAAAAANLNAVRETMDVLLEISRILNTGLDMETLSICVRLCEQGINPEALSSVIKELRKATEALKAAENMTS
In data set [5] the target is Caγ-TuSC–CaMzt1 complex (preassembled, co-expressed) (C. albicans) (UniProt Q59PZ2). In words: MST.
Data set [6] addresses EGFP-CaMzt1^D22A (C. albicans). Put plainly: MST.
For data set [7], the target named is CaMzt1-EGFP (C. albicans). Put plainly: MST.
Data set [8] addresses Saccharomyces cerevisiae γ-tubulin small complex (Scγ-TuSC) (S. cerevisiae) (UniProt P38863). In words: SEC.
Data set [9] concerns the molecule itself. Put plainly: SEC.
Data set [10] has as its target T1, GST–CaSpc72-N (1–420) (C. albicans, UniProt Q5AGV5 1-420).
T1 sequence (looked up): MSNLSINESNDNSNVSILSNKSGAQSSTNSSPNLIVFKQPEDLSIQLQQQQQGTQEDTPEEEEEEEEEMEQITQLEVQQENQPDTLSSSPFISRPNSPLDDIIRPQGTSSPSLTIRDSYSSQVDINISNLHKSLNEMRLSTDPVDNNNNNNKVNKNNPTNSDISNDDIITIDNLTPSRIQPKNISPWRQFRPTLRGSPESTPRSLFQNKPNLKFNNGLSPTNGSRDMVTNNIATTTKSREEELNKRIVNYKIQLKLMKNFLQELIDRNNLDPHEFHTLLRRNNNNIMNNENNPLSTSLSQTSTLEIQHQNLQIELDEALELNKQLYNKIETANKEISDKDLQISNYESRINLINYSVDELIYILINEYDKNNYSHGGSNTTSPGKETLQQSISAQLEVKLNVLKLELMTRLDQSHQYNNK
Put plainly: SEC.

Data set [11] concerns the target Candida albicans γ-tubulin small complex (Caγ-TuSC) (C. albicans, UniProt Q59PZ2 1-871; A0A1D8PS42 1-785; O93807 1-502). In words: co-purification after co-expression.

Consider “CaSpc110^CM1 fragment (117–176 aa) (domain or fragment)”, for which, in data set [1], the Kd is 1420 nM. Regarding “Candida albicans γ-tubulin small complex (Caγ-TuSC), Q59PZ2 1-871; A0A1D8PS42 1-785; O93807 1-502”, the percent oligomeric in data set [2] is 5%; in data set [3] it was 30%. Turning to “GST–CaSpc110-N (1–222) (domain or fragment)”, the Kd in data set [4] stood at 489 nM; in data set [1], 187 nM. The molecule further gave a fold higher affinity than to Caγ-TuSC in data set [5] of 3 fold. For the same molecule, the fold reduction of affinity against EGFP-CaMzt1 in data set [6] amounted to 6 fold. Besides, in data set [7], the fold lower affinity than with EGFP-CaMzt1 was determined as 3 fold. The molecule “Saccharomyces cerevisiae γ-tubulin small complex (Scγ-TuSC), P38863 1-823; P53540 1-846; P53378 1-473” returned a percent oligomeric in [8] of more than 90%.

B1: EGFP-CaMzt1 (natural protein, C. albicans, UniProt A0A1D8PMH7 1-58, looked up)
chain: MPPDPNSMIVELARLMNCVQLDETVLQLCIKLLDEGANPQQLAKHILAIKKETNSILT
In the case of B1, the “stoichiometry N” value in data set [9] was in the range of 3 to 4. In addition, the binding result in data set [10] was “binds”.

B2: CaMzt1-3Flag (natural protein, C. albicans, UniProt A0A1D8PMH7 1-58, looked up)
chain: B1 chain
On to B2, for which the “stoichiometry N” value in data set [11] was 1.

B3: GST-CaMzt1 (natural protein, C. albicans, UniProt A0A1D8PMH7 1-58, looked up)
chain: B1 chain
Regarding B3, the “stoichiometry N” value in [9] was 3 to 4.

What is called Kd is the free concentration of one partner at which half of the binding sites on the other are occupied at equilibrium, for simple one-to-one binding. Read a high Kd as weaker binding. In general, stoichiometry N refers to a count of units in the complex or per binding partner.
